The results in this text go back to US20170224620A1 (Pfizer, published 2017).

In assay [1] the target is Fc tagged recombinant human EGFR (rhEGFR-Fc, R&D systems, Cat#344-ER-050) (human) (UniProt P00533). The assay is described as follows: screening ELISA, peptide 100 µM against 0.7 nM biotin-EGF on coated rhEGFR. On the technique in general: In an ELISA, binding on a coated surface is turned into a signal by an enzyme label.
The target of assay [2] is T1, Fc tagged recombinant human EGFR (rhEGFR-Fc, R&D systems, Cat#344-ER-050) (human, UniProt P00533 25-645).
T1 construct: Bought protein; also called apo-EGFR; not shown: Fc tag
The assay is described as follows: EGF competition ELISA, 10% nanoparticle conjugate.

Assay [3] concerns the target T1, Fc tagged recombinant human EGFR …. The assay is described as follows: EGF competition ELISA, 10% nanoparticle conjugate. On the procedure: An alanine scan was performed on the amino acids within the cyclic portion of the peptide structure to determine which amino acids were critical for binding. Each amino acid within the peptide was individually replaced with alanine. […] Subsequently, an alanine scan of the flanking amino acids on P₁₋₃ was performed.
The source holds these as a separate data set.

The target of assay [4] is T2, EGF bound EGFR (rhEGFR-Fc with recombinant human EGF pre-injected in SPR or 50 nM EGF present in ELISA) (human, UniProt P00533 25-645; P01133 971-1023).
T2 construct: Complex of m1 and m5 as target; also called EGFR in the presence of EGF; With EGF; not shown: Fc tag
The assay is described as follows: P2 competition ELISA: rhEGFR on the plate, 1 nM P2-Biotin dimer as tracer, 50 nM EGF. From the text:
An additional assay was developed to provide an orthogonal assay to SPR during the evaluation of the P₂ peptide analogs and nanoparticle conjugates.

Bridges are numbered along the chain shown (N, C = ends). Primed or numbered codes have the meaning given here. DBCO′ = dibenzocyclooctyne

B1: EGFf-3 (peptide)
peptide: H-DGYCLHDGVC-NH2
modifications: cysteine pairing not given here
As for B1, in assay [1], the % inhibition of EGF is 62.5%.

B2: 10% P1 nanoparticle (other)
peptide: Ac-SECFPLAPDWLSCILGGK(DBCO′)-NH2
modifications: disulfide 3-13; also: DBCO clicked to azide PLA-PEG nanoparticle, 10 mol %
notes: Multivalent nanoparticle conjugate; also called P1 conjugated to nanoparticle at 10 mol %; P1 NP
With B2, the IC50 in assay [2] is 211 µg/mL.

B3: 10% P1-1 nanoparticle (other)
peptide: Ac-SECAPLAPDWLSCILGGK(DBCO′)-NH2
modifications: disulfide 3-13; also: DBCO clicked to azide PLA-PEG nanoparticle, 10 mol %
For B3, in assay [3], the “10% NP Relative IC50 (normalized to P1)” value was roughly 0.3 ratio.

B4: 10% P1-3 nanoparticle (other)
peptide: Ac-SECFPAAPDWLSCILGGK(DBCO′)-NH2
modifications: disulfide 3-13; also: DBCO clicked to azide PLA-PEG nanoparticle, 10 mol %
notes: also called P1-3 NP; P1-3 (Leu6-Ala) conjugate
For B4, in assay [2], the IC50 worked out at 10.3 µg/mL.

B5: 10% P1-3-1 nanoparticle (other)
peptide: Ac-AECFPAAPDWLSCILGGK(DBCO′)-NH2
modifications: disulfide 3-13; also: DBCO clicked to azide PLA-PEG nanoparticle, 10 mol %
B5: in assay [3], the “10% NP Relative IC50 (normalized to P1)” value was 1 ratio.

B6: P2 (Ac-DPCTWEVWGRECLQGGK(PEG4-DBCO)-CONH2) (peptide)
peptide: Ac-DPCTWEVWGRECLQGGK(PEG4‑DBCO)-NH2
modifications: disulfide 3-12
notes: also called P2 DBCO conjugate; parent peptide (P2)
Regarding B6, the “IC50 (read off the curve)” value in assay [4] is roughly 200 nM.

As a reminder, the IC50 is the midpoint of a concentration-inhibition curve.
